5 sequences from the supplement of paper PMC5998384 can be followed below.

For data set [1], the system named is HeLa Kyoto. Nature of the data set: solubility in G1/S (NP-40 vs SDS abundance) (log2 ratio); higher = more soluble. The following applies: cell cycle stage: G1/S.
The test system of data set [2] is HeLa Kyoto. Nature of the data set: melting temperature (median over replicates), in situ; higher = more thermally stable.
The subject of data set [3] is HeLa Kyoto. Nature of the data set: solubility change mitosis vs G1/S (difference of NP-40 vs SDS log2 ratios) (log2 ratio difference); higher = more soluble in mitosis.
The test system of data set [4] is HeLa Kyoto. Nature of the data set: thermal stability score vs G1/S (z-score of summed log2 fold changes over temperatures); higher = more thermally stable than in G1/S.
The mark [5] stands for this setting: cell cycle stage: early G1 (4.5 h after nocodazole release).
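For melting temperature (median over replicates), in situ in this document: HeLa Kyoto cells synchronized by double thymidine or nocodazole block, proteins quantified by TMT10plex mass spectrometry, three independent biological replicates.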
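For solubility change mitosis vs G1/S (difference of NP-40 vs SDS log2 ratios) in this document: synchronized HeLa Kyoto cells (double thymidine block for G1/S, nocodazole release for mitosis), protein amounts in NP-40 versus SDS lysates quantified by mass spectrometry, three biological replicates.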
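For solubility in G1/S (NP-40 vs SDS abundance) in this document: HeLa Kyoto cells arrested at G1/S by double thymidine block, proteins quantified by TMT10plex mass spectrometry in mild NP-40 versus SDS extracts, three biological replicates.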
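For thermal stability score vs G1/S (z-score of summed log2 fold changes over temperatures) in this document: synchronized HeLa Kyoto cells, proteins quantified by TMT10plex mass spectrometry, three biological replicates, mitosis taken 0.5 h after nocodazole release, G1/S directly after double thymidine block.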

On to “MKSSVAQIKPSSGHDRRENLNSYQRNSSPEDRYEEQERSPRDRDYFDYSRSDYEHSRRGRSYDSSMESRNRDREKRRERERDTDRKRSRKSPSPGRRNPETSVTQSSSAQDEPATKKKKDELDPLLTRTGGAYIPPAKLRMMQEQITDKNSLAYQRMSWEALKKSINGLINKVNISNISIIIQELLQENIVRGRGLLSRSVLQAQSASPIFTHVYAALVAIINSKFPQIGELILKRLILNFRKGYRRNDKQLCLTASKFVAHLINQNVAHEVLCLEMLTLLLERPTDDSVEVAIGFLKECGLKLTQVSPRGINAIFERLRNILHESEIDKRVQYMIEVMFAVRKDGFKDHPIILEGLDLVEEDDQFTHMLPLEDDYNPEDVLNVFKMDPNFMENEEKYKAIKKEILDEGDTDSNTDQDAGSSEEDEEEEEEEGEEDEEGQKVTIHDKTEINLVSFRRTIYLAIQSSLDFEECAHKLLKMEFPESQTKELCNMILDCCAQQRTYEKFFGLLAGRFCMLKKEYMESFEGIFKEQYDTIHRLETNKLRNVAKMFAHLLYTDSLPWSVLECIKLSEETTTSSSRIFVKIFFQELCEYMGLPKLNARLKDETLQPFFEGLLPRDNPRNTRFAINFFTSIGLGGLTDELREHLKNTPKVIVAQKPDVEQNKSSPSSSSSASSSSESDSSDSDSDSSDSSSESSSEESDSSSISSHSSASANDVRKKGHGKTRSKEVDKLIRNQQTNDRKQKERRQEHGHQETRTERERRSEKHRDQNSSGSNWRDPITKYTSDKDVPSERNNYSRVANDRDQEMHIDLENKHGDPKKKRGERRNSFSENEKHTHRIKDSENFRRKDRSKSKEMNRKHSGSRSDEDRYQNGAERRWEKSSRYSEQSRESKKNQDRRREKSPAKQK [CWC22]”, for which the “solubility in G1/S (log2)” value in data set [1] was -0.707. Moreover, the melting temperature in data set [2] (cell cycle stage: G1/S) came to 46.1 °C; in data set [2] (cell cycle stage: mitosis), 49.3 °C. Besides, the “solubility change mitosis (log2)” value in data set [3] worked out at 0.227. Further, the thermal stability score in data set [4] (setting [5]) was found to be 1.24; in data set [4] (cell cycle stage: mitosis), 2.43.
In the case of “MRSLLLLSAFCLLEAALAAEVKKPAAAAAPGTAEKLSPKAATLAERSAGLAFSLYQAMAKDQAVENILVSPVVVASSLGLVSLGGKATTASQAKAVLSAEQLRDEEVHAGLGELLRSLSNSTARNVTWKLGSRLYGPSSVSFADDFVRSSKQHYNCEHSKINFRDKRSALQSINEWAAQTTDGKLPEVTKDVERTDGALLVNAMFFKPHWDEKFHHKMVDNRGFMVTRSYTVGVMMMHRTGLYNYYDDEKEKLQIVEMPLAHKLSSLIILMPHHVEPLERLEKLLTKEQLKIWMGKMQKKAVAISLPKGVVEVTHDLQKHLAGLGLTEAIDKNKADLSRMSGKKDLYLASVFHATAFELDTDGNPFDQDIYGREELRSPKLFYADHPFIFLVRDTQSGSLLFIGRLVRPKGDKMRDEL [SERPINH1]”, in data set [1], the “solubility in G1/S (log2)” value is 0.232. Moreover, the melting temperature in data set [2] (cell cycle stage: G1/S) turned out to be 54.2 °C; in data set [2] (cell cycle stage: mitosis) it was 55.2 °C. For the same sequence, the “solubility change mitosis (log2)” value in data set [3] was -0.0819. The results for the thermal stability score in data set [4] (setting [5]) and in data set [4] (cell cycle stage: mitosis) were 4.47 and 4.77, respectively.
With “MGSVLGLCSMASWIPCLCGSAPCLLCRCCPSGNNSTVTRLIYALFLLVGVCVACVMLIPGMEEQLNKIPGFCENEKGVVPCNILVGYKAVYRLCFGLAMFYLLLSLLMIKVKSSSDPRAAVHNGFWFFKFAAAIAIIIGAFFIPEGTFTTVWFYVGMAGAFCFILIQLVLLIDFAHSWNESWVEKMEEGNSRCWYAALLSATALNYLLSLVAIVLFFVYYTHPASCSENKAFISVNMLLCVGASVMSILPKIQESQPRSGLLQSSVITVYTMYLTWSAMTNEPETNCNPSLLSIIGYNTTSTVPKEGQSVQWWHAQGIIGLILFLLCVFYSSIRTSNNSQVNKLTLTSDESTLIEDGGARSDGSLEDGDDVHRAVDNERDGVTYSYSFFHFMLFLASLYIMMTLTNWYRYEPSREMKSQWTAVWVKISSSWIGIVLYVWTLVAPLVLTNRDFD [SERINC1]”, the “solubility in G1/S (log2)” value in data set [1] is -0.167. In addition, the melting temperature in data set [2] (cell cycle stage: G1/S) turned out to be 56.2 °C; in data set [2] (cell cycle stage: mitosis), 60.6 °C. In addition, the “solubility change mitosis (log2)” value in data set [3] was -0.141. In addition, the thermal stability score in data set [4] (setting [5]) was -4.14; in data set [4] (cell cycle stage: mitosis) it was -5.22.
In the case of “MERQKRKADIEKGLQFIQSTLPLKQEEYEAFLLKLVQNLFAEGNDLFREKDYKQALVQYMEGLNVADYAASDQVALPRELLCKLHVNRAACYFTMGLYEKALEDSEKALGLDSESIRALFRKARALNELGRHKEAYECSSRCSLALPHDESVTQLGQELAQKLGLRVRKAYKRPQELETFSLLSNGTAAGVADQGTSNGLGSIDDIETDCYVDPRGSPALLPSTPTMPLFPHVLDLLAPLDSSRTLPSTDSLDDFSDGDVFGPELDTLLDSLSLVQGGLSGSGVPSELPQLIPVFPGGTPLLPPVVGGSIPVSSPLPPASFGLVMDPSKKLAASVLDALDPPGPTLDPLDLLPYSETRLDALDSFGSTRGSLDKPDSFMEETNSQDHRPPSGAQKPAPSPEPCMPNTALLIKNPLAATHEFKQACQLCYPKTGPRAGDYTYREGLEHKCKRDILLGRLRSSEDQTWKRIRPRPTKTSFVGSYYLCKDMINKQDCKYGDNCTFAYHQEEIDVWTEERKGTLNRDLLFDPLGGVKRGSLTIAKLLKEHQGIFTFLCEICFDSKPRIISKGTKDSPSVCSNLAAKHSFYNNKCLVHIVRSTSLKYSKIRQFQEHFQFDVCRHEVRYGCLREDSCHFAHSFIELKVWLLQQYSGMTHEDIVQESKKYWQQMEAHAGKASSSMGAPRTHGPSTFDLQMKFVCGQCWRNGQVVEPDKDLKYCSAKARHCWTKERRVLLVMSKAKRKWVSVRPLPSIRNFPQQYDLCIHAQNGRKCQYVGNCSFAHSPEERDMWTFMKENKILDMQQTYDMWLKKHNPGKPGEGTPISSREGEKQIQMPTDYADIMMGYHCWLCGKNSNSKKQWQQHIQSEKHKEKVFTSDSDASGWAFRFPMGEFRLCDRLQKGKACPDGDKCRCAHGQEELNEWLDRREVLKQKLAKARKDMLLCPRDDDFGKYNFLLQEDGDLAGATPEAPAAAATATTGE [ZC3H7B]”, the “solubility in G1/S (log2)” value in data set [1] was -0.354. Further, the figures for the melting temperature in data set [2] (cell cycle stage: G1/S) and in data set [2] (cell cycle stage: mitosis) were 48 °C and 47.6 °C, respectively. The “solubility change mitosis (log2)” value in data set [3] was found to be 0.118. In addition, the thermal stability score was 1.16 in data set [4] (setting [5]) and 1.26 in data set [4] (cell cycle stage: mitosis).
On to “MAAARHSTLDFMLGAKADGETILKGLQSIFQEQGMAESVHTWQDHGYLATYTNKNGSFANLRIYPHGLVLLDLQSYDGDAQGKEEIDSILNKVEERMKELSQDSTGRVKRLPPIVRGGAIDRYWPTADGRLVEYDIDEVVYDEDSPYQNIKILHSKQFGNILILSGDVNLAESDLAYTRAIMGSGKEDYTGKDVLILGGGDGGILCEIVKLKPKMVTMVEIDQMVIDGCKKYMRKTCGDVLDNLKGDCYQVLIEDCIPVLKRYAKEGREFDYVINDLTAVPISTSPEEDSTWEFLRLILDLSMKVLKQDGKYFTQGNCVNLTEALSLYEEQLGRLYCPVEFSKEIVCVPSYLELWVFYTVWKKAKP [SMS]”, for which the “solubility in G1/S (log2)” value in data set [1] came out at 0.398. Besides, the melting temperature was 56.6 °C in data set [2] (cell cycle stage: G1/S) and 56.5 °C in data set [2] (cell cycle stage: mitosis). In data set [3], the “solubility change mitosis (log2)” value was -0.166. Also, the thermal stability score in data set [4] (setting [5]) was -2.98; in data set [4] (cell cycle stage: mitosis) it was -1.47.
